Measurements: patent US10894036B2, “Use of marizomib for the treatment of central nervous system (CNS) cancers” (Celgene International II Sàrl, priority 2016, dated 2021)

Assay: Phase 1/2 MRZ + BEV and MRZ monotherapy in recurrent G4 MG: adverse events, DLT
Settings: MRZ+BEV
Description: The clinical trial was a Phase 1, dose-escalation (3+3 design) followed by dose-expansion at recommended Phase 2 Dose (RP2D).
The drugs were infused on 28-Day Cycles. Tumor response is assessed every other cycle by RANO criteria.
The safety data will be presented in individual listings and summary tables, including frequency tables for adverse events and frequency and shift tables for laboratory variables. The safety population will be all subjects who received at least one dose of either study drug in Phase 1 or MRZ in Phase 2.

bevacizumab [reference compound]
Ear Infection: # pts, related to BEV (12 Sep. 2016): 0 | Epistaxis: # pts, related to BEV (12 Sep. 2016): 7 | Falls: # pts, related to BEV (12 Sep. 2016): 0 | Fatigue: # pts, related to BEV (12 Sep. 2016): 0 | Fracture of Femur: # pts, related to BEV (12 Sep. 2016): 0 | Hallucination: # pts, related to BEV (12 Sep. 2016): 0 | Headache: # pts, related to BEV (12 Sep. 2016): 1 | Hemiparesis: # pts, related to BEV (12 Sep. 2016): 0 | Hyperglycemia: # pts, related to BEV (12 Sep. 2016): 0 | Hypertension: # pts, related to BEV (12 Sep. 2016): 13 | Hypokalemia: # pts, related to BEV (12 Sep. 2016): 0 | Hyponatremia: # pts, related to BEV (12 Sep. 2016): 0 | Hypotension: # pts, related to BEV (12 Sep. 2016): 0 | Infusion Site Pain: # pts, related to BEV (12 Sep. 2016): 0 | Insomnia: # pts, related to BEV (12 Sep. 2016): 1 | Lymphocyte Count Decreased: # pts, related to BEV (12 Sep. 2016): 0 | Muscular Weakness: # pts, related to BEV (12 Sep. 2016): 0 | Nausea: # pts, related to BEV (12 Sep. 2016): 0 | Optic Nerve Disorder: # pts, related to BEV (12 Sep. 2016): 1 | Pyramidal Tract Syndrome: # pts, related to BEV (12 Sep. 2016): 0 | Tumor Metastasis: # pts, related to BEV (12 Sep. 2016): 0 | Vision Blurred: # pts, related to BEV (12 Sep. 2016): 0 | Vomiting: # pts, related to BEV (12 Sep. 2016): 0 | Anaemia: # events related to BEV (17 May 2016): 0 | Aphasia: # events related to BEV (17 May 2016): 0 | Appendicitis Perforated: # events related to BEV (17 May 2016): 0 | Asthenia: # events related to BEV (17 May 2016): 0 | Ataxia: # events related to BEV (17 May 2016): 0 | Confusional State: # events related to BEV (17 May 2016): 0 | Constipation: # events related to BEV (17 May 2016): 0 | Convulsion: # events related to BEV (17 May 2016): 0 | Delusion: # events related to BEV (17 May 2016): 0 | Diarrhoea: # events related to BEV (17 May 2016): 0 | Dizziness: # events related to BEV (17 May 2016): 0 | Dysarthria: # events related to BEV (17 May 2016): 0 | Dysphagia: # events related to BEV (17 May 2016): 0 | Dysphonia: # events related to BEV (17 May 2016): 10 | Dyspnoea: # events related to BEV (17 May 2016): 0 | Ear Infection: # events related to BEV (17 May 2016): 0 | Embolism: # events related to BEV (17 May 2016): 1 | Epistaxis: # events related to BEV (17 May 2016): 8 | Fatigue: # events related to BEV (17 May 2016): 0 | Hallucination: # events related to BEV (17 May 2016): 0 | Hemiparesis: # events related to BEV (17 May 2016): 0 | Hyperglycemia: # events related to BEV (17 May 2016): 0 | Hypokalemia: # events related to BEV (17 May 2016): 0 | Hypotension: # events related to BEV (17 May 2016): 0 | Insomnia: # events related to BEV (17 May 2016): 0 | Lymphocyte Count Decreased: # events related to BEV (17 May 2016): 0 | Muscular Weakness: # events related to BEV (17 May 2016): 0 | Nausea: # events related to BEV (17 May 2016): 0 | Pyramidal Tract Syndrome: # events related to BEV (17 May 2016): 0 | Vomiting: # events related to BEV (17 May 2016): 0 | Anaemia: # patients, AE related to labelled agent (BEV, MRZ, Both) (36 pts, as of 12 Sep. 2016): 0 | Anxiety: # patients, AE related to labelled agent (BEV, MRZ, Both) (36 pts, as of 12 Sep. 2016): 0 | Aphasia: # patients, AE related to labelled agent (BEV, MRZ, Both) (36 pts, as of 12 Sep. 2016): 0 | Appendicitis Perforated: # patients, AE related to labelled agent (BEV, MRZ, Both) (36 pts, as of 12 Sep. 2016): 0 | Asthenia: # patients, AE related to labelled agent (BEV, MRZ, Both) (36 pts, as of 12 Sep. 2016): 0 | Ataxia: # patients, AE related to labelled agent (BEV, MRZ, Both) (36 pts, as of 12 Sep. 2016): 0 | Confusional State: # patients, AE related to labelled agent (BEV, MRZ, Both) (36 pts, as of 12 Sep. 2016): 0 | Constipation: # patients, AE related to labelled agent (BEV, MRZ, Both) (36 pts, as of 12 Sep. 2016): 0 | Convulsion: # patients, AE related to labelled agent (BEV, MRZ, Both) (36 pts, as of 12 Sep. 2016): 0 | Delusion: # patients, AE related to labelled agent (BEV, MRZ, Both) (36 pts, as of 12 Sep. 2016): 0 | Depressed Level of Consciousness: # patients, AE related to labelled agent (BEV, MRZ, Both) (36 pts, as of 12 Sep. 2016): 0 | Diarrhoea: # patients, AE related to labelled agent (BEV, MRZ, Both) (36 pts, as of 12 Sep. 2016): 0 | Dizziness: # patients, AE related to labelled agent (BEV, MRZ, Both) (36 pts, as of 12 Sep. 2016): 0 | Dysarthria: # patients, AE related to labelled agent (BEV, MRZ, Both) (36 pts, as of 12 Sep. 2016): 0 | Dysphagia: # patients, AE related to labelled agent (BEV, MRZ, Both) (36 pts, as of 12 Sep. 2016): 0 | Dysphonia: # patients, AE related to labelled agent (BEV, MRZ, Both) (36 pts, as of 12 Sep. 2016): 10 | Dyspnoea: # patients, AE related to labelled agent (BEV, MRZ, Both) (36 pts, as of 12 Sep. 2016): 0 | Ear Infection: # patients, AE related to labelled agent (BEV, MRZ, Both) (36 pts, as of 12 Sep. 2016): 0 | Epistaxis: # patients, AE related to labelled agent (BEV, MRZ, Both) (36 pts, as of 12 Sep. 2016): 7 | Falls: # patients, AE related to labelled agent (BEV, MRZ, Both) (36 pts, as of 12 Sep. 2016): 0 | Fatigue: # patients, AE related to labelled agent (BEV, MRZ, Both) (36 pts, as of 12 Sep. 2016): 0 | Fracture of Femur: # patients, AE related to labelled agent (BEV, MRZ, Both) (36 pts, as of 12 Sep. 2016): 0 | Hallucination: # patients, AE related to labelled agent (BEV, MRZ, Both) (36 pts, as of 12 Sep. 2016): 0 | Headache: # patients, AE related to labelled agent (BEV, MRZ, Both) (36 pts, as of 12 Sep. 2016): 1 | Hemiparesis: # patients, AE related to labelled agent (BEV, MRZ, Both) (36 pts, as of 12 Sep. 2016): 0 | Hyperglycemia: # patients, AE related to labelled agent (BEV, MRZ, Both) (36 pts, as of 12 Sep. 2016): 0 | Hypertension: # patients, AE related to labelled agent (BEV, MRZ, Both) (36 pts, as of 12 Sep. 2016): 13 | Hypokalemia: # patients, AE related to labelled agent (BEV, MRZ, Both) (36 pts, as of 12 Sep. 2016): 0 | Hyponatremia: # patients, AE related to labelled agent (BEV, MRZ, Both) (36 pts, as of 12 Sep. 2016): 0 | Hypotension: # patients, AE related to labelled agent (BEV, MRZ, Both) (36 pts, as of 12 Sep. 2016): 0 | Infusion Site Pain: # patients, AE related to labelled agent (BEV, MRZ, Both) (36 pts, as of 12 Sep. 2016): 0 | Insomnia: # patients, AE related to labelled agent (BEV, MRZ, Both) (36 pts, as of 12 Sep. 2016): 1 | Lymphocyte Count Decreased: # patients, AE related to labelled agent (BEV, MRZ, Both) (36 pts, as of 12 Sep. 2016): 0 | Muscular Weakness: # patients, AE related to labelled agent (BEV, MRZ, Both) (36 pts, as of 12 Sep. 2016): 0 | Nausea: # patients, AE related to labelled agent (BEV, MRZ, Both) (36 pts, as of 12 Sep. 2016): 0 | Optic Nerve Disorder: # patients, AE related to labelled agent (BEV, MRZ, Both) (36 pts, as of 12 Sep. 2016): 1 | Pyramidal Tract Syndrome: # patients, AE related to labelled agent (BEV, MRZ, Both) (36 pts, as of 12 Sep. 2016): 0 | Tumor Metastasis: # patients, AE related to labelled agent (BEV, MRZ, Both) (36 pts, as of 12 Sep. 2016): 0 | Vision Blurred: # patients, AE related to labelled agent (BEV, MRZ, Both) (36 pts, as of 12 Sep. 2016): 0 | Vomiting: # patients, AE related to labelled agent (BEV, MRZ, Both) (36 pts, as of 12 Sep. 2016): 0
